± gives the uncertainty stated by the source.
Assay: amyloid nucleation score (Sup35N fusion, yeast selection) (log enrichment); library NNK2; higher = more nucleation; inactive = no reads after selection
Outline: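 In psi-negative yeast, Sup35N fusions carrying peptides of 20 random codons were induced with 100 μM copper sulfate for 24 hours. The cells then grew 7 days at 30°C on medium lacking adenine and uracil, and plasmid inserts from input and output were Illumina-sequenced, excluding sequences with under 100 input reads. Nucleation score is the DiMSum log enrichment of output over input reads, centred on the mode score of non-aggregating sequences.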

Substance | amyloid nucleation score
GPLGHVGLFV | inactive
KRSVVKNLG | 0.157 ± 0.29
MIGVYDGLRHNVEQGFVWCE | 0.419 ± 0.51
LRYIFKMS | -1.34 ± 0.49
NFVNSFRVPISVYKVYLYGG | 4.49 ± 0.08
GATRALRSVTRR | 3.26 ± 0.13
SMSCTTSASYHYLIS | 0.697 ± 0.47
SFAYVMCLSG | -0.635 ± 0.55
AKHERSIMVDVMSGRCSTLS | 1.07 ± 0.24
YDCLCFFPWCRLFNSRKSMA | 0.34 ± 0.14
SDNRENFSRTFCFSVVGNWK | inactive
SMMQLCV | -0.043 ± 0.54
YAMCPCVYNLDSQGAC | 3.85 ± 0.12
YVTFMKGIGLSVFSADIQ | 1.83 ± 0.2
GFVDTTLCMVNLFYGRKSHL | 7.862 ± 0.047
YCFEADVARMIQVFLVFCAS | 0.259 ± 0.25
MIVLIQKGLWGFDLQAVFVP | -0.653 ± 1.1
PIIIDDLMYLGDVDLTMFGE | -0.234 ± 0.74
LFYSTPDRCKRVDVSGISLM | -0.325 ± 0.76
DAITCGVHFAKDLNWVYIEV | inactive
RKLGYFLRLRKKATHGRLLV | 5.5 ± 0.067
HCNLPDWVHGIYMSKS | 0.127 ± 0.74

Substance | amyloid nucleation score
ITIRCGSKDSFMNIGLGKMG | 4.09 ± 0.11
LNCTYN | -0.311 ± 0.79
GFLFRFETRKTHRSCLSWIG | 1.71 ± 0.13
YDKDFCDRRTEPKKFVLRHA | 0.092 ± 0.4
FNGVLDWEWHGVAFAWAGLV | 0.399 ± 0.65
RRVVWSWNCLLSDMPRSHVL | 1.51 ± 0.13
LPVGPLVRDNTWHRRVQRWL | 1.11 ± 0.29
GSIVVNGIGKLGKERRVTSV | 0.302 ± 0.21
KGFAKILLGTSCLMSV | -0.848 ± 0.62
HNLWCDISLFGHIYRGRGTM | 7.21 ± 0.08
DRFTAGLIFCMLCLGRYVCM | inactive
TRISGLGPDRDFSFRAASAK | -0.446 ± 0.76
NGIRQDNMGGVHVPTGSTII | -0.277 ± 0.39
SFFQSVMPYHLVYLGQILLN | -1.25 ± 0.34
LERFSATYLKAWSGGVCVRV | -0.067 ± 0.65
FHRRMFLCAVWLLRLTIVRQ | 0.492 ± 0.39
LCSKGYIMRSAGCRVDCSGV | -0.58 ± 0.41
VRPNSLRHILASLCFLGGEE | 7.416 ± 0.032
TYEMTRMSGIKSSLLPREFW | 1.52 ± 0.17
RLLNTAVLVANESNQNARDR | -0.245 ± 0.29
TNITGVIRVL | -0.211 ± 0.31
NRSHCIVVQLLRCFGYVPYG | inactive

Substance | amyloid nucleation score
VFEVDLFWRSKFNSCLLPFR | -0.95 ± 0.36
IGTEMLTVYIFTYSSA | 0.416 ± 0.74
TTGRTYIRLIYIMCVSMNVS | inactive
QSSNLMGL | -0.338 ± 0.39
ALYCERCYWPV | 0.092 ± 0.53
NYYYIVLLYRSLLLMS | -0.265 ± 0.41
RMSVRLKVVHLDAIIVLVLG | 0.877 ± 0.8
LINEFNAKNQSVRIFPVSEK | -0.645 ± 0.64
WMRFYSYNGIY | -1.26 ± 1.1
RLHRTILHVSRTGQFGAHQC | 0.989 ± 0.35
LFQLGASTR | 0.147 ± 0.76
FGIMNMKYGYTCMMSSSKSS | -1.43 ± 1.1
WFIASLLYISLWFYICSTMS | 0.878 ± 0.24
VVFRLRSNRGNVVPRSWAWC | 1.71 ± 0.13
RPRAWI | 0.428 ± 0.44
FFVSGLFANF | 1.73 ± 0.2
FSSSYP | inactive
CVTQSR | -0.086 ± 0.26
HRSMPIRYWVVTIWYGRSDS | 0.569 ± 0.41
LRPDSNWTGVESLFR | -0.66 ± 0.55
IDFVVIKTLGMCDITYLYM | -0.573 ± 1.1
ITLRRLTVITENPLGWNHIT | 0.499 ± 0.36

Substance | amyloid nucleation score
MSFYFNFIYYFYSYFTFEWF | inactive
PSFILIFNGCKWVPYASKCG | 8.916 ± 0.021
LNYTRCQGSTKVDHSLGNLM | -0.482 ± 0.31
INRPYNIVGRRSSPSHIVTF | inactive
LIFCGECTILNTGGGNRAWV | 8.361 ± 0.03
LVRHFIHGSTA | -1.23 ± 0.49
VHGRGNLKA | 0.032 ± 0.33
TGAIRGGSVQRVHSLINPRM | -0.414 ± 0.55
YSTYRASVGFARRGMPLPIL | 0.015 ± 0.76
NTIMFEFICSIGITVYD | 1.33 ± 0.21
NQNVSLGVTMCFNSNYDRQG | 7.53 ± 0.081
SLDSIFCLTENISYQGIWCR | -1.12 ± 0.28
VSRGGKHGVQIT | inactive
KQPLYCHDWFHLCGSDSTSF | 2.75 ± 0.16
FNIVQHVASCGWLTYTWSAA | -0.018 ± 1.1
SSFSHLSNAIGMPFICNCEP | -0.385 ± 0.45
NILIRASGVRA | inactive
IRFGLVWRLKLGFMLGLNSA | 4.98 ± 0.095
VDMPTSQFVTSTTLGTLVTM | 2.32 ± 0.12
FIAFVYNL | 1.95 ± 0.091

Source: the supplement of paper PMC12042874
